Legend:
[1] = target: T1, human IL-18-BP : human IL-18 complex (Homo sapiens, UniProt O95998); test: Competition ELISA with complex of soluble IL18-IL18BP; type: binding; settings: ADI-66716 vs MAB1191
T1 construct: purchased R&D systems 119-BP
T1 sequence (O95998 31-194): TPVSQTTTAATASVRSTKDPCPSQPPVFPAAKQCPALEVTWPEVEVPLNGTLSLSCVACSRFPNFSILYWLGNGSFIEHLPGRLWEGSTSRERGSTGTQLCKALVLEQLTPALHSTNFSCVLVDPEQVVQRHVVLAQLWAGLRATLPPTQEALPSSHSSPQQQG
Method: This assay was utilized to identify anti-human IL18BP Abs that inhibit the binding interaction between human IL18BP- and its counterpart, human IL-18. Commercial Ab anti human IL18BP (Clone 136007, cat. MAB1191, R&D systems) and ADI-66716 were tested for inhibition of human IL18BP protein binding to IL-18 by ELISA. Human IL18BP antibody (cat.AF 119, R&D) was coated on the wells of a high binding plate overnight at 4° C. (1 ug/ml, 100 μl/well volume). Plates were washed three times with PBS-T buffer (1×PBS pH 7.4, 0.05% Tween20) incubated with 250 μL blocking buffer (2.5% skim milk in PBS) at room temperature (RT) for 2 hr. Blocking buffer was removed and plates were washed three times with PBS-T buffer. Complex pre-formed 1 hour at 37° C. with 0.25 nM human IL-18-BP (R&D, cat. 119BP) and 3 nM Human IL-18 Biotin (9124-IL, R&D) in 1% BSA in PBS buffer. Complex was incubated for 2 hrs at RT together with anti-human IL18BP Abs (in 1% BSA in PBS buffer two times serially diluted. 4-0.06 μg/ml, 100 μL/well volume). Peroxidase Streptavidin, Jackson, cat. 016-030-084 1:1000 in 2.5% skim milk in PBS was added (100 μL/well) for 1 hr at RT. Plates were washed three times with PBS-T buffer (1×PBS pH 7.4, 0.05% Tween20). […] The HRP reaction was stopped by adding 50 μL 1N HCl and absorbance signals at 450 nm were read on a luminescence Reader-EnSpire (Perkin Elmar). […]

[2] = test system: B16/Db-hmgp100 melanoma model; test: B16/Db-hmgp100 syngeneic tumor model; settings: 10 mg/kg from day 4
Method: B16/Db-hmgp100 cells were kindly provided by Dr. Hanada et al. (HHS agency) and were licensed from NIH. B16/Db-hmgp100 cells were generated by double transduction of B16F10 with H-2Db and a retrovirus that encodes chimeric mouse gp100 that is comprised of the human gp10025-33 and the rest of mouse gp100. Cells were cultured in RPMI 1640 (Biological Industries, 01-100-1A) with 10% FBS (Biological Industries, 04-127-1A), and 100 g/mL penicillin/streptomycin (Biological Industries, 03-031-1B), 1% Glutamax (Life technologies, 35050-038), 1% Sodium pyruvate (Biological Industries, 03-042-1B), 0.01% 2-mercaptoethanol (Life technologies, 31350-010), 10 μg/ml Blasticidin (InvivoGen, ant-bl-05). 1×10^5 B16/Db-hmgp100 cells subcutaneously into the back right flank of mice.
In both CT26 and B16/Db-hmgp100 models mAb administration started at day 4 (mono treatment) or day 7 post tumor inoculation when tumors were at volume of 30-50 mm^3 (combo treatment); and was given intra-peritoneal (i.p.) in a final volume/injection of 200 μl, for 3 wks for a total of 6 administrations. Tumor growth was measured with electronic caliper every 2-3 days and was reported as 0.5×W^2×L mm^3. […]
At day 4 post tumor inoculation mice were treated with mAbs (as detailed below) injected on day 4, 7, 11, 14, 18 and 21 post inoculation. Tumor growth was measured with caliper every 2-3 days. […]

[3] = test system: MC38ova tumor-bearing mice; test: Peripheral effects in MC38ova tumor-bearing mice: anti-mIL18BP vs engineered mIL-18; type: in vivo; settings: mouse, in vivo
Method: Nine days pre-inoculum, vials of MC38ova^dim cells were thawed into RPMI media containing 10% FBS, 1% Glutamax, 1% Sodium pyruvate, 1% HEPES, 1% NEAA, 0.01% 2-mercaptoethanol, 1% Penicillin-Streptomycin. Following centrifugation at 300×g for 8 min, cell pellet was resuspended, counted and seeded in a T175 flask. On days −7, −5 and −2, the cells were detached and re-seeded at 6-8*10^6 cells/T175 flask. On the day of inoculum, the cells were detached, centrifuged at 300×g for 10 min, filtered through […] cell strainer and resuspended in RPMI.
Experiments were performed in C57Bl/6 (female, 6-8 wk, Envigo). Mice were anesthetized with 10% Ketamine and 10% Xylazine mixture injected intraperitoneal. Next, mice were inoculated with MC38ova cells (1.2×10^6) subcutaneously to the right flank in 50 μl/mice.
At tumor volume of −120 mm^3 (day 9), mice were randomly assigned into treatment groups. Mice were treated with Synagis mouse IgG1, k isotype control 15 mg/kg (IP), anti-mIL18 bp 837 mIgG1 15 mg/kg (IP), PBS (SC), or engineered IL-18 (SC) 0.32 mg/kg. Treatments were injected twice a week for a total of 6 treatments. […] Mice were weighed every week. Mice were bled before the 4th treatment, 4 hours after the 4th treatment, and 24 hours after the 4th treatment. Serum was analyzed for presence of IFNg, TNFα, MCP1, IL6 by Cytometric Bead Array (CBA) Mouse Inflammation Kit (BD Cat. No. 552364). Spleens were harvested from mice 24 hours after the 4th treatment and weighed. For IL15 experiments, mice were treated with a single dose of 0.5 μg, 1.5 μg of IL15, or with a mix of 0.5 μg IL15 and 2.33 μg IL15R.
Spleens were crushed into 40 μm filters and red blood cells were lysed. Single-cell suspensions were seeded into a 96-well V-bottomed plate. Cells were labeled for viability and dead cells were excluded using the Fixable Viability Stain 450 (BD Bioscience Cat #562247). To block Fcγ receptors, cells were incubated with 10 μg/mL of Purified Rat Anti-Mouse CD16/CD32 (Mouse BD Fc Block™, BD Bioscience Cat #553142) in cold 1×PBS buffer for 10 minutes. Various immune populations were stained with anti-mouse antibodies (Table 17). After washing (1% BSA, 0.1% sodium azide, in PBS), cells were acquired on FACS Fortessa cytometer (BD Bioscience). Analysis was done using FlowJo.

IL18-BP = target: T2, IL18-BP (Mus musculus, UniProt Q9Z0M9); settings: cited from earlier work
T2 sequence (Q9Z0M9 29-193): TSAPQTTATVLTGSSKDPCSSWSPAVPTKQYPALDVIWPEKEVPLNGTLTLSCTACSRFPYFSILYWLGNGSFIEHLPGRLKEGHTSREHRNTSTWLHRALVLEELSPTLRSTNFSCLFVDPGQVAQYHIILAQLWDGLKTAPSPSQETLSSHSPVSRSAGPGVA

B1: ADI-66716: anti-IL18-BP antibody, sequences in FIG. 2N; parental (antibody, V domains shown)
VH: QLQLQESGPGLVKPSETLSLTCTVSGGSISSSDYYWGWIRQPPGKGLEWIGSIYYSGSTYYNPSLKSRVTISVDTSKNQFSLKLSSVTAADTAVYYCARGPHRQVFDYWGQGTLVTVSS
VL: DIQMTQSPSSVSASVGDRVTITCRASQGISSWLAWYQQKPGKAPKLLIYAASSLQSGVPSRFSGSGSGTDFTLTISSLQPEDFATYYCQQGSSFPYTFGGGTKVEIK
Q: Which “Blocking of IL18-IL18BP complex formation” value [1] does the source give for B1 here?
A: superior blocking effect to R&D antibody

B2: anti-PVRIG: Anti PVRIG mAb 407 mAb mouse IgG1, BOJ-5G4-F4 (antibody, V domains shown)
VH: QVQLQQSGAELAKPGSSVMISCKASGYTFTNYAVHWIKQTTGQALEWTGYIAPGSGVTKYNEKFKGKATLTVDKSSTTAYMQLSSLTPVDTAVYYCASGTTRFAYWGQGTLVTVSS
VL: DIVLTQSPALAVSLGQRATISCRASQSVSLSSYNLMQWYQQKPGQEPKILIYDASNLPSGIPARFSGSGSGTDFTLTIDPVQADDIATYYCQQSKDDPLTFGSGTKLEIK
Q: Which “Tumor growth, anti-PVRIG monotherapy” value [2] does the source give for B2 here?
A: comparable tumor growth to mice treated with isotype control mAbs

B3: engineered mIL-18: Engineered IL-18 of US 20190070262A1, SEQ ID NO: 1920 (protein)
chain: HFGRLHCTTAVIRNINDQVLFVDKRQPVFEDMTDIDQSASEPQTRLIIYAYGDSRARGKAVTLSVKDSKMSTLSCKNKIISFEEMDPPENIDDIQSDLIFFQKRVPGHNKMEFESSLYEGHFLACQKEDDAFKLILKKKDENGDKSVMFTLTNLHQSHHHHHH
Q: What does the source list for B3?
A: Activation state of splenic lymphocytes vs control [3]: significantly more CD69+CD4+ T-cells, CD69+CD8 T-cells, CD69+B Cells, CD107+NK cells, and CD69+CD107+ NKT cells; Serum levels of IL18, 4 hours after the 4th treatment [3]: very high serum levels of IL18; Serum levels of IL18, 24 hours after the 4th treatment [3]: returned to baseline; Spleen enlargement vs control, average [3]: 4.9 folds; Splenic CD45+ immune cells, CD3+ T cells and CD19+ B cells vs control [3]: larger number of CD45+ immune cells, as well as CD3+ T cells and CD19+B cells; Binding to IL18-BP (IL18-BP): not to bind IL18-BP

From patent publication US20240425607A1, “IL-18BP ANTAGONIST ANTIBODIES AND THEIR USE IN MONOTHERAPY AND COMBINATION THERAPY IN THE TREATMENT OF CANCER” (Compugen Ltd., priority 2023, published 2024)
